Values of other authors as cited in publication PMC7419686.

Molecular target: MDMX (Homo sapiens) (UniProt O15151)
Sequence (O15151 whole entry): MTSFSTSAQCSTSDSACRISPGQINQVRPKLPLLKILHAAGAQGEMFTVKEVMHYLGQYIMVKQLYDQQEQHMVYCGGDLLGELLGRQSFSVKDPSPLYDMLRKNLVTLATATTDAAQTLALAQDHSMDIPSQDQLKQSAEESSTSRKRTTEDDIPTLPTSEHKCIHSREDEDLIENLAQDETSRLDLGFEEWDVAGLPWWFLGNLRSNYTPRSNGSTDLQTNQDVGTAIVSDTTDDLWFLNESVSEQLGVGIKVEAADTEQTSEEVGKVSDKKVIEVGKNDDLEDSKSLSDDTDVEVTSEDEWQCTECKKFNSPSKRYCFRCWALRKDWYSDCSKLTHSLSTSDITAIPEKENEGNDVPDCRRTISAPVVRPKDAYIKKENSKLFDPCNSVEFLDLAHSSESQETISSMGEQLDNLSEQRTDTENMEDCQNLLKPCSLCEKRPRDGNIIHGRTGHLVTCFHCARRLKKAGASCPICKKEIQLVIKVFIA

Question: With SAH-p53-8 (from UniProt P04637) as the substance, how does the Kd read?
Answer: Its Kd is 2.3 nM.
